Results as given in EP1438388B1.

Legend:
[1] = biological target: putative IBC-1 receptor on G361 melanoma cells, lower affinity binding site (human); test: Scatchard analysis of AP-IBC-1 binding to G361 melanoma cells, bound AP activity; lower affinity slope
[2] = biological target: putative IBC-1 receptor on G361 melanoma cells, moderately high affinity binding site (human); test: Scatchard analysis of AP-IBC-1 binding to G361 melanoma cells, bound AP activity; moderately high affinity slope
[3] = biological target: putative IBC-1 receptor on G361 melanoma cells, moderately high affinity binding site (human); test: Scatchard analysis of AP-IBC-1 binding to G361 melanoma cells; moderately high affinity slope
[4] = biological target: putative IBC-1 receptor on G361 melanoma cells, lower affinity binding site (human); test: Scatchard analysis of AP-IBC-1 binding to G361 melanoma cells; lower affinity slope

In the case of “alkaline phosphatase-IBC-1 fusion protein (from UniProt P81605 20-110) (ligand)”, the Kd [1] is reported as 360 nM, the Kd [2] is reported as 37.5 nM and the binding sites/cell (binding sites/cell) [3] is reported as 17000. It also gave a binding sites/cell (binding sites/cell) [4] of 350000.
